In the supplement of paper PMC10567573:

B1: CROP (parent)
chain: VFGRGDNISDVSKFLEDDKWMEE
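Note: lentivirally expressed fusions sorted by FACS into six bins by GFP to DsRed ratio, PSI derived from sequencing read proportions per bin multiplied by bin number.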

Variants of: B1
Experiment: protein stability index of a GFP-peptide fusion (GPS, HEK-293T) (PSI 1-6); higher = more stable
Conditions: c terminus: native
VFGRGDNQSDVSKFLEDDKWMEE [I8Q] showed a protein stability index of 2.07.
For VFGRGDNCSDVSKFLEDDKWMEE [I8C], the protein stability index was 2.81.
With VFGRGDNISDVSKALEDDKWMEE [F14A] the protein stability index was 4.31.
With VFGRGDNISDVSKCLEDDKWMEE [F14C] the protein stability index was 3.8.
Variant VEGRGDNISDVSKFLEDDKWMEE [F2E] has a protein stability index of 4.33.
For VKGRGDNISDVSKFLEDDKWMEE [F2K], the protein stability index was 2.16.
With VHGRGDNISDVSKFLEDDKWMEE [F2H] the protein stability index was 3.4.
VTGRGDNISDVSKFLEDDKWMEE [F2T] gave a protein stability index of 3.29.
In the case of VQGRGDNISDVSKFLEDDKWMEE [F2Q], the protein stability index is reported as 2.99.
Variant VGGRGDNISDVSKFLEDDKWMEE [F2G] has a protein stability index of 2.79.
For VPGRGDNISDVSKFLEDDKWMEE [F2P], the protein stability index was 2.66.
Work on VSGRGDNISDVSKFLEDDKWMEE [F2S] yielded a protein stability index of 2.83.
With VCGRGDNISDVSKFLEDDKWMEE [F2C] the protein stability index was 3.7.
VYGRGDNISDVSKFLEDDKWMEE [F2Y] gave a protein stability index of 1.66.
With VWGRGDNISDVSKFLEDDKWMEE [F2W] the protein stability index was 2.85.
VVGRGDNISDVSKFLEDDKWMEE [F2V] showed a protein stability index of 2.64.
For VDGRGDNISDVSKFLEDDKWMEE [F2D], the protein stability index was 3.87.
With VNGRGDNISDVSKFLEDDKWMEE [F2N] the protein stability index was 2.87.
With VIGRGDNISDVSKFLEDDKWMEE [F2I] the protein stability index was 1.8.
Variant VAGRGDNISDVSKFLEDDKWMEE [F2A] has a protein stability index of 2.88.
Variant VLGRGDNISDVSKFLEDDKWMEE [F2L] has a protein stability index of 1.97.
For VFGRGDVISDVSKFLEDDKWMEE [N7V], the protein stability index was 1.53.
Work on VFGRGDQISDVSKFLEDDKWMEE [N7Q] yielded a protein stability index of 1.79.
Variant VFGRGDEISDVSKFLEDDKWMEE [N7E] has a protein stability index of 1.4.
In the case of VFGRGDSISDVSKFLEDDKWMEE [N7S], the protein stability index is reported as 1.41.
Work on VFGRGDMISDVSKFLEDDKWMEE [N7M] yielded a protein stability index of 1.64.
In the case of VFGRGDRISDVSKFLEDDKWMEE [N7R], the protein stability index is reported as 2.61.
For VFGRGDTISDVSKFLEDDKWMEE [N7T], the protein stability index was 1.89.
VFGRGDIISDVSKFLEDDKWMEE [N7I] showed a protein stability index of 2.21.
In the case of VFGRGDCISDVSKFLEDDKWMEE [N7C], the protein stability index is reported as 2.37.
In the case of VFGRGDLISDVSKFLEDDKWMEE [N7L], the protein stability index is reported as 1.42.
With VFGRGDDISDVSKFLEDDKWMEE [N7D] the protein stability index was 2.89.
Variant VFGRGDGISDVSKFLEDDKWMEE [N7G] has a protein stability index of 1.77.
Work on VFGRGDAISDVSKFLEDDKWMEE [N7A] yielded a protein stability index of 1.68.
For VFGRGDYISDVSKFLEDDKWMEE [N7Y], the protein stability index was 1.97.
For VFGRGDHISDVSKFLEDDKWMEE [N7H], the protein stability index was 2.12.
Variant VFGRGDPISDVSKFLEDDKWMEE [N7P] has a protein stability index of 1.35.
Variant VFGRGDNISVVSKFLEDDKWMEE [D10V] has a protein stability index of 2.63.
VFGRGDNISMVSKFLEDDKWMEE [D10M] showed a protein stability index of 2.75.
VFGRGDNISTVSKFLEDDKWMEE [D10T] showed a protein stability index of 2.74.
VFGRGDNISNVSKFLEDDKWMEE [D10N] gave a protein stability index of 2.04.
With VFGRGDNISSVSKFLEDDKWMEE [D10S] the protein stability index was 2.09.
Work on VFGRGDNISRVSKFLEDDKWMEE [D10R] yielded a protein stability index of 1.55.
With VFGRGDNISKVSKFLEDDKWMEE [D10K] the protein stability index was 1.99.
VFGRGDNISHVSKFLEDDKWMEE [D10H] gave a protein stability index of 3.06.
VFGRGDNISIVSKFLEDDKWMEE [D10I] gave a protein stability index of 1.99.
Work on VFGRGDNISGVSKFLEDDKWMEE [D10G] yielded a protein stability index of 2.11.
With VFGRGDNISAVSKFLEDDKWMEE [D10A] the protein stability index was 1.99.
For VFGRGDNISEVSKFLEDDKWMEE [D10E], the protein stability index was 2.1.
With VFGRGDNISPVSKFLEDDKWMEE [D10P] the protein stability index was 1.69.
VFGRGDNISDYSKFLEDDKWMEE [V11Y] showed a protein stability index of 1.38.
For VFGRGDNISDTSKFLEDDKWMEE [V11T], the protein stability index was 1.49.
In the case of VFGRGDNISDISKFLEDDKWMEE [V11I], the protein stability index is reported as 2.39.
Work on VFGRGDNISDHSKFLEDDKWMEE [V11H] yielded a protein stability index of 2.43.
VFGRGDNISDQSKFLEDDKWMEE [V11Q] gave a protein stability index of 2.87.
In the case of VFGRGDNISDWSKFLEDDKWMEE [V11W], the protein stability index is reported as 2.43.
VFGRGDNISDESKFLEDDKWMEE [V11E] showed a protein stability index of 2.39.
Work on VFGRGDNISDNSKFLEDDKWMEE [V11N] yielded a protein stability index of 2.33.
Variant VFGRGDNISDCSKFLEDDKWMEE [V11C] has a protein stability index of 2.35.
In the case of VFGRGDNISDFSKFLEDDKWMEE [V11F], the protein stability index is reported as 2.15.
Variant VFGRGDNISDSSKFLEDDKWMEE [V11S] has a protein stability index of 2.71.
With VFGRGDNISDPSKFLEDDKWMEE [V11P] the protein stability index was 3.27.
For VFGRGDNISDRSKFLEDDKWMEE [V11R], the protein stability index was 2.12.
VFGRGDNISDASKFLEDDKWMEE [V11A] gave a protein stability index of 2.4.
VFGRGDNISDKSKFLEDDKWMEE [V11K] gave a protein stability index of 2.6.
With VFGRGDNISDLSKFLEDDKWMEE [V11L] the protein stability index was 1.61.
For VFGRGDNISDMSKFLEDDKWMEE [V11M], the protein stability index was 2.95.
Variant VFGRGDNISDGSKFLEDDKWMEE [V11G] has a protein stability index of 2.11.
With VFGRGINISDVSKFLEDDKWMEE [D6I] the protein stability index was 2.48.
In the case of VFGRGPNISDVSKFLEDDKWMEE [D6P], the protein stability index is reported as 2.32.
Work on VFGRGHNISDVSKFLEDDKWMEE [D6H] yielded a protein stability index of 1.85.
VFGRGQNISDVSKFLEDDKWMEE [D6Q] showed a protein stability index of 2.4.
Variant VFGRGWNISDVSKFLEDDKWMEE [D6W] has a protein stability index of 4.02.
Work on VFGRGKNISDVSKFLEDDKWMEE [D6K] yielded a protein stability index of 2.01.
For VFGRGGNISDVSKFLEDDKWMEE [D6G], the protein stability index was 2.08.
Variant VFGRGENISDVSKFLEDDKWMEE [D6E] has a protein stability index of 2.42.
VFGRGLNISDVSKFLEDDKWMEE [D6L] gave a protein stability index of 2.91.
For VFGRGVNISDVSKFLEDDKWMEE [D6V], the protein stability index was 2.96.
VFGRGRNISDVSKFLEDDKWMEE [D6R] showed a protein stability index of 2.16.
With VFGRGSNISDVSKFLEDDKWMEE [D6S] the protein stability index was 2.15.
Work on VFGRGDNISDVSNFLEDDKWMEE [K13N] yielded a protein stability index of 1.91.
VFGRGDNISDVSSFLEDDKWMEE [K13S] showed a protein stability index of 2.65.
With VFGRGDNISDVSPFLEDDKWMEE [K13P] the protein stability index was 1.14.
With VFGRGDNISDVSIFLEDDKWMEE [K13I] the protein stability index was 2.69.
Work on VFGRGDNISDVSRFLEDDKWMEE [K13R] yielded a protein stability index of 1.89.
For VFGRGDNISDVSHFLEDDKWMEE [K13H], the protein stability index was 1.71.
In the case of VFGRGDNISDVSGFLEDDKWMEE [K13G], the protein stability index is reported as 2.02.
Variant VFGRGDNISDVSDFLEDDKWMEE [K13D] has a protein stability index of 2.83.
Work on VFGRGDNISDVSCFLEDDKWMEE [K13C] yielded a protein stability index of 1.74.
Variant VFGRGDNISDVSAFLEDDKWMEE [K13A] has a protein stability index of 2.29.
For VFGRGDNISDVSEFLEDDKWMEE [K13E], the protein stability index was 2.41.
Work on VFGRGDNISDVSMFLEDDKWMEE [K13M] yielded a protein stability index of 2.69.
Variant VFGRGDNISDVSTFLEDDKWMEE [K13T] has a protein stability index of 1.72.
VFGRGDNISDVSFFLEDDKWMEE [K13F] gave a protein stability index of 2.04.
In the case of VFGRGDNISDVSVFLEDDKWMEE [K13V], the protein stability index is reported as 1.54.
Variant SFGRGDNISDVSKFLEDDKWMEE [V1S] has a protein stability index of 2.11.
For WFGRGDNISDVSKFLEDDKWMEE [V1W], the protein stability index was 3.69.
